Test results reported in US20230057602A1 (Bristol-Myers Squibb, published 2023).

Biological target: T1, human B cell maturation antigen (BCMA) (human, UniProt Q02223 1-184)
T1 sequence (looked up): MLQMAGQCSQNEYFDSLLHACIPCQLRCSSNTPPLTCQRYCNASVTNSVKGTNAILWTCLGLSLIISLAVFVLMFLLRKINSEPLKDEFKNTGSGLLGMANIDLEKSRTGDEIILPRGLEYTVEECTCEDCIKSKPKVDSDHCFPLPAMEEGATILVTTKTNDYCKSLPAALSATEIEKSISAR
Assay: cell-based or functional assay

B1: CC-93269 (42-TCBcv) (bispecific antibody, human IgG1, kappa, L234A L235A)
heavy 1: not shown
heavy 2: EVQLLESGGGLVQPGGSLRLSCAASGFTFSDNAMGWVRQAPGKGLEWVSAISGPGSSTYYADSVKGRFTISRDNSKNTLYLQMNSLRAEDTAVYYCAKVLGWFDYWGQGTLVTVSSASTKGPSVFPLAPSSKSTSGGTAALGCLVEDYFPEPVTVSWNSGALTSGVHTFPAVLQSSGLYSLSSVVTVPSSSLGTQTYICNVNHKPSNTKVDEKVEPKSCDKTHTCPPCPAPEAAGGPSVFLFPPKPKDTLMISRTPEVTCVVVDVSHEDPEVKFNWYVDGVEVHNAKTKPREEQYNSTYRVVSVLTVLHQDWLNGKEYKCKVSNKALGAPIEKTISKAKGQPREPQVCTLPPSRDELTKNQVSLSCAVKGFYPSDIAVEWESNGQPENNYKTTPPVLDSDGSFFLVSKLTVDKSRWQQGNVFSCSVMHEALHNHYTQKSLSLSPGK
light 1: EIVLTQSPGTLSLSPGERATLSCRASQSVSDEYLSWYQQKPGQAPRLLIHSASTRATGIPDRFSGSGSGTDFTLAISRLEPEDFAVYYCQQYGYPPDFTFGQGTKVEIKRTVAAPSVFIFPPSDRKLKSGTASVVCLLNNFYPREAKVQWKVDNALQSGNSQESVTEQDSKDSTYSLSSTLTLSKADYEKHKVYACEVTHQGLSSPVTKSFNRGEC
light 2: EVQLLESGGGLVQPGGSLRLSCAASGFTFSTYAMNWVRQAPGKGLEWVSRIRSKYNNYATYYADSVKGRFTISRDDSKNTLYLQMNSLRAEDTAVYYCVRHGNFGNSYVSWFAYWGQGTLVTVSSASVAAPSVFIFPPSDEQLKSGTASVVCLLNNFYPREAKVQWKVDNALQSGNSQESVTEQDSKDSTYSLSSTLTLSKADYEKHKVYACEVTHQGLSSPVTKSFNRGEC
- IC50 (ng/ml) of redirected lysis, H929 cells co-cultured with healthy donor T cells (E:T 1:1, 72 h), DMSO control, mean of 3 donors: 3.42 ng/mL
- IC50 (ng/ml) of redirected lysis, H929 cells co-cultured with healthy donor T cells (E:T 1:1, 72 h), with 1 µM dexamethasone, mean of 3 donors: 6.52 ng/mL
- IC50 (ng/ml) of redirected lysis, KMS12-PE cells co-cultured with healthy donor T cells (E:T 1:1, 72 h), DMSO control, mean of 3 donors: 0.2 ng/mL
- IC50 (ng/ml) of redirected lysis, KMS12-PE cells co-cultured with healthy donor T cells (E:T 1:1, 72 h), with 1 µM dexamethasone, mean of 3 donors: 3.61 ng/mL
- IC50 (ng/ml) of redirected lysis, MM1S cells co-cultured with healthy donor T cells (E:T 1:1, 72 h), DMSO control, mean of 3 donors: 0.21 ng/mL
- IC50 (ng/ml) of redirected lysis, MM1S cells co-cultured with healthy donor T cells (E:T 1:1, 72 h), with 1 µM dexamethasone, mean of 3 donors: 3.31 ng/mL
- IC50 (ng/ml) of redirected lysis, SKMM2 cells co-cultured with healthy donor T cells (E:T 1:1, 72 h), DMSO control, mean of 3 donors: 0.09 ng/mL
- IC50 (ng/ml) of redirected lysis, SKMM2 cells co-cultured with healthy donor T cells (E:T 1:1, 72 h), with 1 µM dexamethasone, mean of 3 donors: 0.34 ng/mL
